{
  "source": "patent US20090118184A1",
  "about": "(UNIVERSITY OF ROCHESTER, published 2009)",
  "binders": {"B1": {"name": "factor VIIIa A2 subunit, wild type (other)", "chain": "SVAKKHPKTWVHYIAAEEEDWDYAPLVLAPDDRSYKSQYLNNGPQRIGRKYKKVRFMAYTDETFKTREAIQHESGILGPLLYGEVGDTLLIIFKNQASRPYNIYPHGITDVRPLYSRRLPKGVKHLKDFPILPGEIFKYKWTVTVEDGPTKSDPRCLTRYYSSFVNMERDLASGLIGPLLICYKESVDQRGNQIMSDKRNVILFSVFDENRSWYLTENIQRFLPNPAGVQLEDPEFQASNIMHSINGYVFDSLQLSVCLHEVAYWYILSIGAQTDFLSVFFSGYTFKHKMVYEDTLTLFPFSGETVFMSMENPGLWILGCHNSDFRNRGMTALLKVSSCDKNTGDYYEDSYEDISAYLLSKNNAIEPR"}},
  "assay_in_all_cases": "cell-based or functional assay",
  "key": {"[1]": {"target": "T1, factor VIIIa A1/A3C1C2 dimer, Y1786F (human, UniProt P00451 20-391; P00451 1709-2351)", "T1 sequence 1": "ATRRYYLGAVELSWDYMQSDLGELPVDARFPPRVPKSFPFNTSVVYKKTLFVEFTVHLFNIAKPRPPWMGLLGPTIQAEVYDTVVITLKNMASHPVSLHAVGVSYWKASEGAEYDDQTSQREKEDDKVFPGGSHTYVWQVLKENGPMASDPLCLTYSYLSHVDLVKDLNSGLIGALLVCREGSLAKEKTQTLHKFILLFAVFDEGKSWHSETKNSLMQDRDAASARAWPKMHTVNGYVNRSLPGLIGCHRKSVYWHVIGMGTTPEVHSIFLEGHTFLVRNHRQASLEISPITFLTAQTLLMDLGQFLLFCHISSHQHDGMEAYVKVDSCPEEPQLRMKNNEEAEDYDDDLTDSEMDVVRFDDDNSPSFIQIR", "T1 sequence 2": "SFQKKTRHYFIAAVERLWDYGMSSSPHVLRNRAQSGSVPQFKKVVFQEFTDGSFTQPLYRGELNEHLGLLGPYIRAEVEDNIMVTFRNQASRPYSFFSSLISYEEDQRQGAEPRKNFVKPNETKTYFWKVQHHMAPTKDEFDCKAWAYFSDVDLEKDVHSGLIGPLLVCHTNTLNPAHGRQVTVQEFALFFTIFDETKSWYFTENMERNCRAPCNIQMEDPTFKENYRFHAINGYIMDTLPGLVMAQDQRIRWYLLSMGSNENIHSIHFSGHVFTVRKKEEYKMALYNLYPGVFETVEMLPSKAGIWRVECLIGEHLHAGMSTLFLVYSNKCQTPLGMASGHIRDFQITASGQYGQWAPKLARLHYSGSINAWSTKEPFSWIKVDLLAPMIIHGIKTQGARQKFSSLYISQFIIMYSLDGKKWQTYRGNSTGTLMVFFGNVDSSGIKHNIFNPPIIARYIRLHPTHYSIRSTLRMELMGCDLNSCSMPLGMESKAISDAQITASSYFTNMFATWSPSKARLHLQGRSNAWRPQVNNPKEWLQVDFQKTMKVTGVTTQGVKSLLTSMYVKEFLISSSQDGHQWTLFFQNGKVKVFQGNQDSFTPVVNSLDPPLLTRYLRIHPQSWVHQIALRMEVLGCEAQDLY"}, "[2]": {"target": "T2, factor VIIIa A1/A3C1C2 dimer, D302A (human, UniProt P00451 20-391; P00451 1709-2351)", "T2 chain 1": "T1 sequence 1 with D302A", "T2 chain 2": "T1 sequence 2 with F97Y"}, "[3]": {"target": "T3, factor VIIIa A1/A3C1C2 dimer, H281A (human, UniProt P00451 20-391; P00451 1709-2351)", "T3 chain 1": "T1 sequence 1 with H281A", "T3 chain 2": "T1 sequence 2 with F97Y"}, "[4]": {"target": "T4, factor VIIIa A1/A3C1C2 dimer, wild type (human, UniProt P00451 20-391; P00451 1709-2351)", "T4 sequence 1": "T1 sequence 1", "T4 sequence 2": "T1 sequence 2 with F97Y"}},
  "note": "Numbering of substitutions follows the chain as printed.",
  "data": [
    {"binder": "B1", "values": [
      {"measurement": "Factor VIIIa decay rate relative to wild type, FIXa (+)", "setting": "[1]", "value": "20.9 relative to wild type"},
      {"measurement": "Factor VIIIa decay rate relative to wild type, FIXa (-)", "setting": "[1]", "value": "17 relative to wild type"},
      {"measurement": "Factor VIIIa decay rate, FIXa (+)", "setting": "[1]", "value": 0.236, "unit": "min⁻¹"},
      {"measurement": "Factor VIIIa decay rate, FIXa (-)", "setting": "[1]", "value": 1.07, "unit": "min⁻¹"},
      {"measurement": "Factor VIIIa decay rate relative to wild type, FIXa (+)", "setting": "[2]", "value": "0.43 relative to wild type"},
      {"measurement": "Factor VIIIa decay rate, FIXa (+)", "setting": "[2]", "value": 0.0049, "unit": "min⁻¹"},
      {"measurement": "Factor VIIIa decay rate relative to wild type, FIXa (+)", "setting": "[3]", "value": "3.99 relative to wild type"},
      {"measurement": "Factor VIIIa decay rate, FIXa (+)", "setting": "[3]", "value": 0.045, "unit": "min⁻¹"},
      {"measurement": "Factor VIIIa Decay relative to the WT value, Factor IXa absent", "setting": "[4]", "value": "1 relative to WT"},
      {"measurement": "Factor VIIIa Decay relative to the WT value, Factor IXa present", "setting": "[4]", "value": "1 relative to WT"},
      {"measurement": "Factor VIIIa Decay, Factor IXa absent", "setting": "[4]", "value": 0.0836, "unit": "min⁻¹"},
      {"measurement": "Factor VIIIa Decay, Factor IXa present", "setting": "[4]", "value": 0.0154, "unit": "min⁻¹"}
    ]}
  ]
}
